Here are results for one molecule from paper PMC2141644 (The Journal of Cell Biology, 1997).

The target of the assay is F-actin (actin filaments) from rabbit skeletal muscle (rabbit, UniProt P68135 1-377). Put plainly: co-sedimentation.

B1: GST-dem (GST fused to abLIM amino acids 585-778) (domain or fragment)
chain: RSSGREEDDEELLRRRQLQEEQLMKLNSGLGQLILKEEMEKESRERSSLLASRYDSPINSASHIPSSKTASLPGYGRNGLHRPVSTDFAQYNSYGDVSGGVRDYQTLPDGHMPAMRMDRGVSMPNMLEPKIFPYEMLMVTNRGRNKILREVDRTRLERHLAPEVFREIFGMSIQEFDRLPLWRRNDMKKKAKLF
In general, Kd refers to the free concentration of one partner at which half of the binding sites on the other are occupied at equilibrium, for simple one-to-one binding. The low end stands for a tighter complex, the high end for a looser complex. Consider B1, for which the Kd was roughly 2600 nM and the “stoichiometry N” value was ~1.1 actin molecules per GST–abLIM monomer.
